Measurements reported in patent publication US20250188189A1 (published 2025).
Substitutions are numbered along the chain they refer to.

T1: plasma-derived human activated protein C (APC) (UniProt P04070 43-461)
T1 chain: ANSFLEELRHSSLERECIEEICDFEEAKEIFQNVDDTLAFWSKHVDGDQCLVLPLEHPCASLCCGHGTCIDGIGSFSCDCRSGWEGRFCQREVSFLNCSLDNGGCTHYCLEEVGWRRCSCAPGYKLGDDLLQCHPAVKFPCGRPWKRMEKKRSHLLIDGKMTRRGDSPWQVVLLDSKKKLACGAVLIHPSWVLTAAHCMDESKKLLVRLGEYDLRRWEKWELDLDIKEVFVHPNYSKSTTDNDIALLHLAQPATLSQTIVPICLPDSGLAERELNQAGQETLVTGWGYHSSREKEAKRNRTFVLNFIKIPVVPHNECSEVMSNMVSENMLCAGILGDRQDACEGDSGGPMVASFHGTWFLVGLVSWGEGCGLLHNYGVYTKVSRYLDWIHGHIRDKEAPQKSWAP

B1: TPP-26874 (antibody, V domains shown)
VH: EVQLVESGGGLVQPGGSLRLSCAASGFTFSNYYMNWVRQAPGKGLEWVSYISSSSSTIYYADSVKGRFTISRDDSKNSLYLQMNSLKTEDTAVYYCAREGDYFDYWGQGTLVTVSS
VL: DIVLTQSPASLAVSPGQRATITCKASQSVSSFGATFMHWYQQKPGQPPKLLIYLASNRASGVPDRFSGSGSGTDFTLKISRVEAEDVGVYYCQQNNEDPYTFGQGTKLEIKR
B2: TPP-26869 (antibody, V domains shown)
VH: B1 VH
VL: EIVLTQSPGTLSLSPGERATLSCRASQSVSSFGATFMHWYQQKPGQPPKLLIYLASNRASGVPDRFSGSGSGTDFTLTINPVEADDTANYYCQQNNEDPYTFGQGTKLEIKR
B3: TPP-26926 (antibody, V domains shown)
VH: EVQLVESGGGLVQPGGSLRLSCAASGFTFSNYYMSWVRQAPGKGLEWVGDIRLKSNNYEKHYAESVKGRFTISRDDSKNSLYLQMNSLKTEDTAVYYCAREGDYFDYWGQGTLVTVSS
VL: B1 VL
B4: TPP-26924 (antibody, V domains shown)
VH: B3 VH
VL: B1 VL with Q41L, P47S, K49Q, K78T, S80N, R81P, E85D, V87T, G88A, V89N
B5: TPP-26863 (antibody, V domains shown)
VH: B1 VH
VL: DIVMTQSPLSLPVTPGEPASISCRSSESVDSFGATFMHWYLQKPGQSPQLLIYLASNRASGVPDRFSGSGSGTDFTLKISRVEAEDVGVYYCQQNNEDPYTFGQGTKLEIKR
B6: TPP-26864 (antibody, V domains shown)
VH: B1 VH
VL: EIVLTQSPGTLSLSPGERATLSCRASESVDSFGATFMHWYLQKPGQSPQLLIYLASNRASGVPDRFSGSGSGTDFTLKISRVEAEDVGVYYCQQNNEDPYTFGQGTKLEIKR
B7: TPP-26862 (antibody, V domains shown)
VH: B1 VH
VL: B5 VL with L41Q, S47P, Q49K
B8: TPP-26872 (antibody, V domains shown)
VH: B1 VH
VL: B1 VL with Q41L, P47S, K49Q, K78T, S80N, R81P, E85D, V87T, G88A, V89N
B9: TPP-26894 (antibody, V domains shown)
VH: EVQLVESGGGLVQPGGSLRLSCAASGFTFSNYYMNWVRQAPGQGLEWMGRIIPILGIANYAQKFQGRFTISRDDSKNSLYLQMNSLKTEDTAVYYCAREGDYFDYWGQGTLVTVSS
VL: B6 VL with E27Q, D30S
B10: TPP-26882 (antibody, V domains shown)
VH: EVQLVESGGGLVQPGGSLRLSCAASGFTFSNYYMNWVRQAPGKGLEWVGRIKSKTDGGTTDYAAPVKGRFTISRDDSKNSLYLQMNSLKTEDTAVYYCAREGDYFDYWGQGTLVTVSS
VL: B2 VL

Target: T1, plasma-derived human activated protein …
Assay: SPR

Point of comparison: B3, Kd 30.5 nM. Against it:
- B1 — 2.3-fold lower, 13.2 nM
- B2 — 2.3-fold lower, 13.5 nM
- B4 — within 1.5-fold, 27.5 nM
- B5 — 2.7-fold lower, 11.2 nM
- B6 — 3.5-fold lower, 8.79 nM
- B7 — 2.3-fold lower, 13.5 nM
- B8 — 2.4-fold lower, 12.8 nM
- B9 — 4.7-fold higher, 142 nM
- B10 — 5.5-fold higher, 169 nM
